Experiment: yeast display, Sf9 membrane polyspecificity reagent, FACS + sequencing; frameworks hold sequencing errors
Method in brief: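 A nanobody's polyreactivity label depends on the gate it was sorted from. Yeast display cells were stained with 10% biotinylated, detergent-solubilized Sf9 membrane reagent for 1 hour at 4 °C, enriched on streptavidin microbeads and sorted by FACS. The low and high (top ~1%) gates were set on anti-HA fluorescence for expression and streptavidin fluorescence for reagent binding.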

Sequence	polyreactivity (PSR sort gate)
QVQLVESGGGLVQAGGSLRLSCAASGRTFYWNAMGWYRQAPGKEREFVAAITNTAGSTYYADSVKGRFTISRDNAKNTVYLQMNSLNPEDTAVYYCAKSGNGGYRTYLRDYWGQGTQVTVSS	low polyreactivity
QVQLVESGGGLVQEGGSLRLSCAASGRTIIQNGMGWYRQAPGKERELVAAISYRGGTTSYADSVKGRFTISRDNAKNTVYLQMNSLKPEDTAVYSCAAVGHTIYATPTYYYWGQGTQVTVSS	high polyreactivity
QVQLVESGGGLVQAGGSLRLSCAASGPNFTKYAMGWYRPAPGKERELVAGISSRGTSTYYADSVKGRFTISRDNAKNTVYLQMNSLKPEDTAVYYCNKDSKSRFTYDYWGQGTQVTVSS	high polyreactivity
QVQLEESGGGLVQAGGSLRLSCAASGRTFDRYAMGWYRQAPGKERELVAAITWSGGRTYYADSVKGRFTISRDNPKNTVYLQMNSLKPEDTAVYYCATAYYYHGGYYYPYDVDYWGQGTQVTVSS	low polyreactivity
QVQLVESGGGLVQAGGSLRLSCAASGITFHEYAMVWYRQAPGKERELVAAISASGGTTYYADSVKGRFTISRDNAKNTVYLQMNSLKPEDTAVYYCAALPLYITEYGYWGQGTQVTVSS	high polyreactivity
QVQLVESGGGLVQAGGSLRLSCAASGTTFGRNAMGWYRQAPGKERELVAAITACGGTTYYADSVKGRFTISRDNAKNTVYLQMNSLKPEDTAVYYCARAGHFSFKYDYWGQGTQVTVSS	low polyreactivity
QVQLVESRGGLVQAGGSLRLSCAASGYILWRYAMGWYRQAPGKERELVASISSGVSTNYADSVKGRFTISRDNAKNTVYLQMYSLKPEDTAVYYCKTGRWLLGSMEYWGQGTEVTVSS	low polyreactivity
QVQLEESGGGLVQAGGSLRLSCAASGSTFYANTMGSYRQAPGKERELVATISIDGSTNYADSVKGRFTISRDNAKNTVYLQMNTLKPEDTAVYYCNADVYSVLYGYWGQGTQVTVSS	low polyreactivity
QVQIVESGGVLVQAGGSLRLSCAASGSITYFNAMGWYRQAPGKERELVAAISYSGGSTYYADSVKGRFTISRDNAKNTVYLQMNSLKPEDTAVYYCAADRLIGWRKTYYYWGQGTQVTVSS	high polyreactivity
QVQLVESGGGLVQAGGSLTLSCAASGSTFDYNVMGWYRQAPGKERELVAAISNAGTTNYADSVKGRFTISRDNAKNTVYLLMNSLKPEDTAVYYCAADLGYYAAVTKYAEYDYWGQGTQVTVSS	low polyreactivity
QVQLVESGGGLVQAGGSLRLSCAASANTFPTNAMGWYRQAPGKEMELVATISLGAGSTHYADSVKVRFTISRDNAKNTVYLQMNSLTPEDTAVYYCAARSRRWYDYDYWGQGTQVTVSS	low polyreactivity
QVQLVESGGGLVQAGGSLRLICAASGSIFFWYTMGWYRQAPGKERELVATITGSGSSTTYADSVKGRFTISRDNAKYTVYLQMNSLKPEDTAVYYCAAADIIDHSFPYDYWGQGTQVTVSS	low polyreactivity
QVQLVESGGGLVQAGGSLRLSCAASGITFGYYAMGWYRPAPGKERELVAAITYSGGSTYYADSVKGRFTISRDNAKNTVYLQMNCLKPEDTAVYDCAAERYVRVWVAGILHYDYWGQGTQVTVSS	low polyreactivity
QVQLVESGGGLVQAGGSLRIICAASGRTFDRYAMRGYRQAPGKERELVAASTRRGTTTYYADSVKVRFSISRDYAKNTVYLQMYSLKPEDTAVYYCAAKRGCVSRPDYGANDESWGQGTQVTVSS	high polyreactivity
QVQLVESGGGLVQAGGSLRLSCAASGGIFNSYTMGWYRQAPGKERELVAAITKRGGSTYYADSVKGRFTISRYNAKNTVYLQMNSLKPEDTAVYYCAAGATVQFDYWGQGTQVTVSS	high polyreactivity
QVQLVESGGGLVQAGGSLRLSCAASGGILVGYALGWYRQAPGKERELVAAITSTGSTYYADSVKGRFTISRDNAKNTVYLQMNSLKPEDTAVYYCNAIGLHRYDYWGQGTQETVSS	low polyreactivity
QVQLVESGGGLVQAGGSLRLSCAASGRIFGTYTMGWYRQAPGKERELVAAITTGGITNYADSVKGRFTISRDNAKNTVYLQMNSLKPEDTAVYYCNARWDYGAYEYWGQGTQVTVSS	low polyreactivity
QVQLVESGGGLVQAGGSLRLSCAASGFIFRINAMGWYRQAPGKERELVAAITSSGGSTYYADSVKGRFTISRDNAKNTVYLQMNSLKPEDTAVYYCAASRPRPPSSRRMDYWGQGTQVTVSS	high polyreactivity
QVQLVESGGGIVQAGGSLRLSCAASGFIFSNYAMGWYRQAPGKERELVAAISSGGTITKYADSVKGRFTISRDNAKNTVYLQMNSLKTEDTAVYYCNAVVRVRFRKNDYWGQGTQVTVSS	high polyreactivity
QVHLVESGGGLVNAGGTLRLSCAASGSTYSRYAMGWYRQAPVKESELVAAITRSGGSTYYADSVKGRFTISRDNAKNTVYLQMNSLKPEDTAVYYCNRPRLYGGSPYYYWGQGTQVTVSS	high polyreactivity
QVQLVESGGGLVQAGGSLRLSCAASGRTLYIYAMGWYREAPGKERELVAAITNGGTTYADSVKGRFTISRDNAKNTVYLQINSLKPEDTAVYYCNADLRVSRITQYEYWGQGTQVTVSS	low polyreactivity
QVQLVESGGGLVQAGGSLRLSCAASGSISLAYAMGWYRQAPGKERELVAAISFRTGRTFYADSVKGRFTISRDNAKNTVYLQMNSLKPEDTAVYYCAAENLDFYFEEYWGQGTQVTVSS	high polyreactivity

Sequence	polyreactivity (PSR sort gate)
QVQLVESGGGLVQAGGSLRLSCAASGRIFYRNAMGWYRQAPGKERELVAVITSSSGSTYADSVKGRFTISRDNAKNTVYLQMNSLKPEDTAVYYCAAEEDYIYFYVSMDYWGQGTQVTVSS	low polyreactivity
QVQLVESGGGLVQAGGSLRLSCAASGSIFRINAMGWYRPAPGKEREFVAAIRGSGGRTYYAESVKGRFTISRDNAKNTVYLQMNSLKPEDTAVYYCAADFSYRYFQRTSWPFDYWGQGTQVTVSS	high polyreactivity
QVQLVQSGGGLVQAGGRLSLSCAASGRTIDTYAMGWYRQAPGKERELVAAITRRTYYADSVKGRFTISRDNAKNSVYLQMNSLKPEDTAVDYCAVRFLRKWTSSRHYGYWGQGTQVTLSS	high polyreactivity
QVQLVESGGGLVQAGGSLRLSCAASGRTFYYYAMGWYRQAPGKERELVAVIRSSGDSTYYADSVKGRFTISRDNAKNTVYLQMNSLKPEDTAVYYCNADDWAYGMDYWGQGTQVTVSS	low polyreactivity
QVQLVESGGCLVQAGGSLRLSCAASGRTLGYYTMGWYRQAPGKERELVATITPGGSTSYADSVKGRFTISRDNAKNTVYLQMNSLKPEDTAVYYCARTRPYYLLYSSNFRYDYWGQGTQVTVSS	high polyreactivity
QVQLVESGGGLVQAGGSLRLSCAASGSIFINNMGWYRQAPGKERELVAAISNSGGRTYYADSVKGRFTISRDNAKNTVYLQMNSLKPEDTAVYYCAKKSNRLPYGYWGQGTQVTVSS	high polyreactivity
QVQLVESGGGLVQAGGSLRLSCAASGSIFGNNAMGWYRQAPGKERELVAAISGSGGTRYADSVKGRFTISRDNAKNTVYFQLNSLKPEDTAVYYCSADDSWGGFHSPKAIGYDYWGQGTQVTVSS	low polyreactivity
QVQHVESGGGLDQAGGSLRLSCAASGFTFVFNAMGWYRQAPGKERELVATITNGGSTYYADSVKGRFTISRDNAKNTVYLQMNSLKPEDTAVYYCAKTWFAYRDYDFWGQGTQVTVSS	high polyreactivity
QVQLHESGGGLVQAGGSLRLSCAASGTISVTYNMGWYRQAPGKEREFVAGNSTGATTNYADSVKGRFTISRDNAKNTVYLQMNSLKPEDTAVYYCAAHIYRQDHFYYWGQGTQVTVSS	low polyreactivity
QVQLQESGGGLVQAGGCLSCTASGTIFGQGDMGWYRQAPGKERELVATINDGASTYYADSVKGRFTISRDKAKNTVNLQKNSLKPDDTAVYYCAVFTDITTYFGYWGQGTQVTVSS	low polyreactivity
QVQLVESGGGLVLAGGSLRLSCAASGSTFRGNAMGWYRQAPGKERELVAAITRRGGSTYYADSVKGRFTISRDNAKNTVYLQMNSLKPEDTAVYYCAKVTTYVSAWQGNGYWGQGTQVTVSS	high polyreactivity
QVQLVESGGGLVQAGGSLRLSCAASGRTFGRYAMGWYRQAPGKERELVAAISWRGSSTSYADSVKGRFTISRDNAKNTVYLQMNSLKPEDTSVYYCNAKRSGGYGGYDYWGQGTQVTVSS	high polyreactivity
QVQLVESGGGLVQAGGSLRLSCAASGRIVKANAMGWYRQAPGKERELVAAIRESGGTTYYADSVKGRFTISRDNATNTVYLQMNSLKPEDTAVYYCAAAYRDTQYNYYYWGQGTQVTVSS	high polyreactivity
QVQLVESGGGLVQAGGSLRVSCAASGITFAYYAMGWYRHAPGKDRELVAAITRRGSSTYYADSVKGRFTISRDNAKNTVYLQMNSLKPEATAVYYCAAVAYGRERYDYWGPGTQVTVSS	high polyreactivity
QVQLVESGGGLVQAGGSLRLSCAASGMICGVYAMGWYRQAPGKERELVAAIDGNGSSTYYADSVKGRFTISRDNAKNTVYLQMNSLKPEDTAVYYCAAGYWSYLYYWYDFDYWGQGTQVTVSS	low polyreactivity
QVQLVESGAGLVQAGGSLRLSCAASGSTFGSYTMGWYRQAPGKERELVAAINWSGGNTYYADSVKGRFTISRDTAKNTVYLQMNSLKPEDTAVYYCAAAFYIYGVEGDYWGQGTQVTVSS	low polyreactivity
QVQLVESGGGLVQAGGSLRLSCASSGSTFLINAMGWYRQAPGKERELVAAISRDGSTNYADSVKGRFTISRDNAKNTVYLQMHSLIPEDTAVYSCAAVPGISVGRQPGYDYDYWGQGTQVTVSS	low polyreactivity
QVQLVESGGGLVQPGGSLSLSCAASGLTFYSYAMGWSRQAPGKERELVAAITSSGSITYYADSVKGRFTISRDNAKNTVYLQMNSLTPEDTAVYYCAARPYRVRGQRFEGNYCGQGTQVTVSS	high polyreactivity
QVQLVESGGGLVQAGGSLRLSCAASGSTFIIYAMGWYRQAPGKERELVAAITWRGGTTYYADSVKGRFTISRDNAKNTVYLQMNSLKPEDTAVYYCNAKFGYPFVDYDDYWGQGTKVTVSS	low polyreactivity
QVQLVESGGGLVQAGGSLRLSCAASGSTFAYYTMGWYRQAPGKERELVAAISSRGGSTYYADSVKGRFTISRDNAKNTVYLQMNSLKPEDTAVYYCAKSPRVAHYTSAYDYWGQGTQVTVSS	high polyreactivity
QVQLVESGGGLVQAGGSLRLSCAASGSIFRGYTMGWYRQAPGKERELVAAITSGDSTNYADSVKGRFTISRDNAKNTVYLQMNSLKPEDTAVYYCAAGRLYLPYLVYRTYSFVGYYYWGQGTQVTVSS	high polyreactivity
